Source: the supplement of paper PMC9170038

Test system: K4 kissing-loop RNA reporter
Test: apparent KD of K4 kissing-loop reporter; higher = weaker reporter binding
Conditions: Eterna round: R107
Protocol: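 RNA-MaP round R107: designed RNA switches with theophylline, tryptophan, arginine or FMN aptamers are transcribed on-chip within common flanks. They are titrated with a labelled K4 kissing-loop RNA reporter in RNA-MaP buffer (100 mM Tris pH 7.5, 80 mM KCl, 4 mM MgCl2), without ligand or with the indicated ligand. Median apparent KD per design.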

[1] = input ligand: theophylline 20 uM
[2] = input ligand: tryptophan 2.4 mM
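Further: bound reporter read as fluorescence of individual clusters on recovered sequencing chips by microscopy, with normalized cluster intensities fitted with a binding model.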

| Sequence | apparent KD of K4 kissing-loop reporter (input ligand: FMN 200 uM) [nM] | apparent KD of K4 kissing-loop reporter (input ligand: arginine 13.2 mM) [nM] | apparent KD of K4 kissing-loop reporter (input ligand: none) [nM] | apparent KD of K4 kissing-loop reporter [1] [nM] | apparent KD of K4 kissing-loop reporter [2] [nM] |
| --- | --- | --- | --- | --- | --- |
| GAAAGAAAGUAUGAUACCAGACACCCGAGUGAUGUUCGGAACAGUGUGUUGUUCUUUUAAGUCCCUUGGCAGCAUAAAAGAAAAG [whbob_SS_Theo_B_sa86] | 135 | 143 | 151 | 171 | 110 |
| GAACGGCUGGCGGCCGCCACUGGUAUACGAGUGAUGUUCGGAUACACAUAGAAUAAGGUGAUUGACAGGACCGGGUCAGAGCCGG [#15 K4 Tryptophan B Same State] | 251 | 197 | 234 | 246 | 180 |
| GAAGGUCAAAGACCUUCGUGCACACCUGAUACCAGUCGCGAAAGCGACCCUUGGCAGCAGGGUAGUGAUGUUGCCAGUGCACAAA [#14 K4 Theophylline A Same State] | 865 | 735 | 797 | 595 | 732 |
| GAAUUUGCCGAUCAAAGUGAUGUUUUGGAUACCAGCCAUCAAGCUGGCCCUUGGCAGCCAACGUCGGCUGGCGACCGUGCGGACU [theeternabot_exclusion_KL_Theo_A_50] | 383 | 253 | 347 | 310 | 285 |
| GACACUCGGUGAUAAUAACCGUUACGCGAUACCAGCGUAACAGUACGCCCUUGGCAGCGCAGUGAUGUUGCGUGCCGAGUGUGAA [Theo A Ex Mod of Esbiceve] | 180 | 170 | 172 | 170 | 163 |
| GACAUACCUAUGGAGGGCCGAUCGAACAAACGAGGACCGGUACGGCCGCCACUCGUGGGCAGUGAUGUUGACCCUGGGAGGUAAG | 373 | 410 | 544 | 236 | 598 |
| GAGAAUCUCACGGCCGCCACUCACCUGUUAAUUGACAUCGACGGCCUCGACCAGUGAUGUUGUGUGAGGACCGGGUGUCUCGUGU [theeternabot_exclusion_KL_Trp_B_32] | 647 | 519 | 702 | 562 | 423 |
| GAGGUUUACGUAGGAUAUCGAUAAUGAGUAAAUGGAGUGAUGUUCCGAAAUUGAAUAAGAGAUGAGCGAGAAGGGCGGAUUAAGC [FMN B Same State; Euporia Solution] | 39.1 | 41.4 | 37.8 | 66.5 | 43.4 |
| GAGGUUUACGUAGGAUAUCGGUAAUGAGUAGAUGGAGUGAUGUUCCGAAAUUGAAUAGGAGAUGGGCGAGAAGGGCGGAUUAAGC [whbob_SS_FMNB__2th204] | 82.1 | 91.6 | 77.4 | 110 | 58.1 |
| GAUAAUAGAAUAGAUACCAGUCAAGACCUAGUGAUGUUAGGGAGAUAAGUAGAAUGAAUUGGCCCUUGGCAGCUAUAAUAGUAGG [Default title] | 92.4 | 106 | 80.5 | 129 | 73.4 |
| GAUAAUAGCACGGCCGCCACUGAAAAGCCGUGCUAUACGAGUGAUGUUCGUAAUUAUACGGGAUUCAGGACCGGGUGCAACGGUA [Tryp B SS t1] | 122 | 115 | 139 | 158 | 98.1 |
| GAUAAUUACGUAGGAUAUCCAUAUCCGCGGUCUUGAUGGAUUUUUACGAUCCAGUGAUGUUGGAUUGGAGAAGGACGGAGGCAAA [Arquedis] | 289 | 392 | 403 | 435 | 362 |
| GAUACACUUUCAGGUAUCCAGUGACUGGAUACCAGCAUGGAAACAUGCCCUUGGCAGCCAGAACUGGAAGUGAUGUUUCCAGUAA [Design7] | 215 | 166 | 195 | 214 | 199 |
| GAUCGAUGUCAGGAUACCAGCGGAAUCGUCGGAGACUCGAGUGGAGUGAUGUUCCCAGCACGCCCUUGGCAGCCUUGUUUAAGAU [theeternabot_sameState_KL_Theo_B_19] | 312 | 199 | 318 | 404 | 310 |
| GAUCUGAACGAAAGUUCGGAUCAGUCCGAUACCAGUAUGGAUUCAUACCCUUGGCAGCGGUUAUCUGCUAUGGAGUGAUGUUCCU [Theophylline A K4 12] | 363 | 332 | 410 | 447 | 227 |
| GAUGGCAUGCGAGGAUAUUGUACGGAGUGAUGUUCCCAUUAUCCAGGUAUUCGAUUGACGAGUAUCCAAGAAGGCGCAUGCCAUC | 248 | 121 | 136 | 115 | 138 |
| GAUUGUGAUGGAAACAUCGCAAUCUCUGAAGGAGCGCGUGAAAACGCAGGUAGGUCGCAGGACGACAAAGACAGUGAUGUUGUCG [Ex Arginine A K4 2] | 446 | 424 | 554 | 504 | 416 |
| GAUUGUGAUGGAAACAUCGCAAUCUCUGAAGGAGCGCGUGAAAACGCAGGUAGGUCGCAGGACGACUUUGACAGUGAUGUUGUCG [Ex Arginine A K4 4] | 186 | 223 | 201 | 216 | 180 |
| GCAAAACGCAGUGAUGUUGCGAUCUCGGAAGGAGCGCGUGAAAACGCAGGUAGGUCGCCGAGUCAGUGAGUAUCUCGCUGUUUGC [Arginine A K4 19] | 383 | 352 | 489 | 455 | 322 |
| GCAACAUUGGAAGGAUAUCAUUCUGAGUGAUGUUCAGGGUUCAGCUAACGAAAGUUAGUUGUACCAUGAGAAGGUCUAAUGUUGC [Omei KL FMN B SS A v4] | 332 | 646 | 1610 | 1220 | 1010 |
| GCAACAUUGGGAGGAUAUCAUUCUGAGUGAUGUUCAGGGUUCAGCUAACGAAAGUUAGUUGUACCAUGAGAAGGCCUAAUGUUGC [Omei KL FMN B SS A v2] | 287 | 769 | 964 | 867 | 961 |
| GCACGAGUGAUGUUCGUUGGCAUGCAUUCCGAGGAUAUGGGAUUAGCCAGAAGGCGGAAUCGGUCUUCGAGUGAUGUUCGAAGAU [Same State FMN A GF 13] | 104 | 87.8 | 113 | 87.2 | 109 |
| GCACUCGAAAGAGUGCCUCUCGCCAUCACGUAGGAUAUCUGGAAACAGAGAAGGAUGGCAGUGAUGUUGCUUUCGAUGGCGAGAG | 165 | 137 | 180 | 174 | 188 |

| Sequence | apparent KD of K4 kissing-loop reporter (input ligand: FMN 200 uM) [nM] | apparent KD of K4 kissing-loop reporter (input ligand: arginine 13.2 mM) [nM] | apparent KD of K4 kissing-loop reporter (input ligand: none) [nM] | apparent KD of K4 kissing-loop reporter [1] [nM] | apparent KD of K4 kissing-loop reporter [2] [nM] |
| --- | --- | --- | --- | --- | --- |
| GCAGAACGCAGUGAUGUUGCGAAAUCGGAAGGAGCGCGUGAAAACGCAGGUAGGUCGCCGACACAGGGAUUAUAUCCCUGUUUGC [Arginine A K4 17] | 178 | 169 | 182 | 206 | 133 |
| GCAGCAAAUAAACGAGUGAUGUUCGACGAUACCAGCCUCGAUAGAGGCCCUUGGCAGCGUAAAUGAUCACAAAGCCAAGGGCUGC [#SwitchBubble 1] | 332 | 375 | 396 | 366 | 362 |
| GCAGUGAUGUUGCACGAGUACGGUAGAGUACGAGGACCGGUACGGCCGCCACUCGUACGGAACUGGCUAAUUUAUGGAAUGGUGA [II] | 383 | 463 | 1440 | 477 | 365 |
| GCAGUGAUGUUGCUCGUUUCAUCGCGAGAUACCAGACCAUAUGAGGUCCCUUGGCAGCUCUAGUCAUCUGGUCCUUUUGCGUACU [theeternabot_exclusion_KL_Theo_A_2] | 906 | 620 | 941 | 722 | 653 |
| GCAUCCAUGGCAGGAUAUAGCUGAGUGAUGUUCAGGACCCAGUCAGUAUCCAUUACUACUGGACUUCUAGAAGGGCCAUGGAUGC | 231 | 192 | 288 | 288 | 246 |
| GCAUCCGAUGCAGGAUAUAGAUGAACGAGUGAUGUUUGGAAUUUAUGUCCAAAGCCUACGAUCAGACUAGAAGGGCAUCGGAUGC | 147 | 75.4 | 122 | 197 | 164 |
| GCAUCCUCUGCAGGAUAUCGCGGAGUGAUGUUCCGCGCAUGCCAUAGCGAAAGCUAUGGCAUGCGACGAGAAGGGCAGAGGAUGC | 165 | 124 | 147 | 157 | 138 |
| GCAUUGAGUGAUGUUUAAGCUUAGUCAUCACGAGGACCGGUACGGCCGCCACUCGUGCUUGGAGCGACCGAUACCCUAGAGACCC [theeternabot_sameState_KL_Trp_A_27] | 160 | 62.5 | 61.7 | 247 | 193 |
| GCCAGAGCGCGAAGGAGCGCCGUGACAGGUUGCUGCCGUGGGCAGUGAUGUUGCUCAGUCUGGCAGGUAGGUCGCGUGCUCUGGC | 196 | 173 | 205 | 228 | 219 |
| GCCCACAUUAGUGAUACCAGUGGGCACUCACCAGUUCAGUGAUGUUGGACGCAGUGUGGUCACCCUUGGCAGCACCGAUGCCCUU [theeternabot_sameState_KL_Theo_B_32] | 129 | 128 | 122 | 122 | 129 |
| GCCCUUCAGGUCGGAGUGAUGUUCCAAUGGAAGGAUAUCCGGGCUCGGAGAAGGUCCAAUUGUGUCUUGUUAAGGUGCUCACUAC [theeternabot_sameState_KL_FMN_A_46] | 251 | 221 | 215 | 203 | 223 |
| GCCGUACGCACGGAUACCAGCACUCGGUGAGUGAUGUUCACGGUGUGGUAUUCACCGGGCUGCCCUUGGCAGCCGUGCGUACGGC | 375 | 301 | 343 | 1280 | 283 |
| GCCGUACGCAUGGAUACCAGAGUCUUUCUAGUGCCUCUGGAGUACAGUGAUGUUGUGCCACUCCCUUGGCAGCCAUGCGUACGGC | 1080 | 647 | 906 | 671 | 768 |
| GCCGUACGCAUGGAUACCAGAUGGCACUAUAAUCUCCCAGAGUGAUGUUCUGGCCUGCCUAUCCCUUGGCAGCCAUGCGUACGGC | 686 | 514 | 670 | 387 | 585 |
| GCCGUACGCAUGGAUACCAGCACACAACGAAGUGAUGUUUCGUGCGUAGAUUUGUGCUACUGCCCUUGGCAGCCAUGCGUACGGC | 86.6 | 69 | 82.2 | 69.3 | 78.6 |
| GCCGUACGCAUGGAUACCAGCUAGACCGAGUGAUGUUCAGGUCUGAAUGCCGGUAUCAAGAGCCCUUGGCAGCCAUGCGUACGGC | 382 | 265 | 301 | 329 | 292 |
| GCCGUACGCAUGGAUACCAGCUAUUAGAGUGAUGUUCUAUGGCCCUGCCAAUGGAGCUGUAGCCCUUGGCAGCCAUGCGUACGGC | 112 | 95.2 | 109 | 105 | 104 |
| GCCGUACGCAUGGAUACCAGUCUUUCACGACUGGACAUGGAGUGAUGUUUCGUGAUGCUAGACCCUUGGCAGCCAUGCGUACGGC | 255 | 198 | 242 | 329 | 210 |
| GCCGUAGAUGGAAGGAGCGUGGUUAAUGUAAGUGAUGUUUACGAGGUUAACAAUUAACCGCCACAGGUAGGUCGCCAUCUACGGC | 72.8 | 62.8 | 77.5 | 58.6 | 73.8 |
| GCCGUAGAUUGAAGGAGCGACAUAAACGAUGUUCUGGUAGUGAUGUUACCUUAGCAGGCAUGUCAGGUAGGUCGCAAUCUACGGC | 238 | 133 | 209 | 162 | 176 |
| GCCGUAGAUUGAAGGAGCGAGGCUAAUUAAAGACCGAGUGAUGUUCGGGAGCGUGAAACUCCUCAGGUAGGUCGCAAUCUACGGC | 217 | 180 | 204 | 186 | 180 |
| GCCGUAGAUUGAAGGAGCGGACAGAUACGGGUAUCCAGUGAUGUUGGAAGGUAGCUACUAGUCCAGGUAGGUCGCAAUCUACGGC | 283 | 111 | 304 | 286 | 164 |
